Test results from patent publication US10556944B2, “Fab region-binding peptide” (priority 2013, dated 2020).
Where no end group is shown, it is not given here.

Target: T1, anti-TNFα antibody-Fab (IgG-Fab derived from anti-TNFα monoclonal antibody, adalimumab) (Homo sapiens, UniProt P01834+P01857)
T1 construct: cleaving a humanized monoclonal IgG formulation as a starting material into a Fab fragment and an Fc fragment by papain; purchased
Test: Biacore 3000 surface plasmon resonance, affinity of SpG-β1 mutants for immobilized IgG-Fab
Assay type: binding
Details: for affinity / binding ability for the IgG-Fab compared with the wild-type (in words): Tables 1 and 3, FIGS. 2 and 3

[1] = Table 3, Example 4, GST-cleaved type (Pep-), constructs Pep.1d, Pep.1dC, Pep.2dC
[2] = Table 3, Example 4, fold of wild-type KA of the same construct type
[3] = Table 2, Example 3, GST-fused one-domain peptide
[4] = Table 2, Example 3, GST-fused one-domain peptide, 25° C., pH 7.4
[5] = Table 2, Example 3, fold of wild-type KA, GST-fused one-domain peptide

Substance | KA [1] | koff [1] | kon [1] | KA Vs. Wild [2] | KA [3] | koff [4] | kon [4] | KA Vs. Wild [5] | also measured
Pep.1dC K13T/E19I/V21D/T25M/F30L/Y33F/N35F/D47A (TTYKLILNGKTLTGETTTIADDAAMAEKVLKQFAFDNGVDGEWTYDAATKTFTVTE) | 5.47e+06 M⁻¹ | 0.0137 s⁻¹ | 74700 s/M | 31 | – | – | – | – | –
Pep.2dC K13T/T18A/E19I/V21A/K28I/F30L/Y33F/V39I (TTYKLILNGKTLTGETTAIAADAATAEIVLKQFANDNGIDGEWTYDDATKTFTVTE) | 1.02e+07 M⁻¹ | 0.0062 s⁻¹ | 63900 s/M | 30 | – | – | – | – | –
K13T/E15T/E19I/T25M/E27G/F30L/N35Y: GST-fused one-domain SpG-β1 mutant, amino acid SEQ ID NO: 63 (TTYKLILNGKTLTGTTTTIAVDAAMAGKVLKQYAYDNGVDGEWTYDDATKTFTVTE; also: GST-fused) | – | – | – | – | 1.28e+06 M⁻¹ | 0.0063 s⁻¹ | 80700 s/M | 3.4 | –
K13T/E19I/F30L/D47A/K50E: GST-fused one-domain SpG-β1 mutant, amino acid SEQ ID NO: 65 (TTYKLILNGKTLTGETTTIAVDAATAEKVLKQYANDNGVDGEWTYDAATETFTVTE; also: GST-fused) | – | – | – | – | 1.14e+06 M⁻¹ | 0.0062 s⁻¹ | 70900 s/M | 3.1 | –
Pep.1dC K13T/T18A/E19I/V21A/K28I/F30L/Y33F/V39I: SpG-β1 mutant, SEQ ID NO: 85, GST-cleaved one domain type with Cys at the C-terminus (TTYKLILNGKTLTGETTAIAADAATAEIVLKQFANDNGIDGEWTYDDATKTFTVTE; C-terminal Cys; SpG mutant) | 9.11e+06 M⁻¹ | 0.0097 s⁻¹ | 88300 s/M | 51 | – | – | – | – | –
K13T/V21A/F30L/Y33F/D40E: GST-fused one-domain SpG-β1 mutant, amino acid SEQ ID NO: 51 (TTYKLILNGKTLTGETTTEAADAATAEKVLKQFANDNGVEGEWTYDDATKTFTVTE; also: GST-fused) | – | – | – | – | 1.78e+06 M⁻¹ | 0.0078 s⁻¹ | 139000 s/M | 4.8 | –
Pep.2dC K10R/K13T/T18A/E19I/V21D/T25M/F30L/Y33F/N35F/D47A: SpG-β1 mutant, SEQ ID NO: 87, GST-cleaved two domain type with Cys at the C-terminus | 8.56e+07 M⁻¹ | 0.0014 s⁻¹ | 117000 s/M | 253 | – | – | – | – | KA Vs. Wild (Table 3, Example 4, fold of wild-type KA of the same construct type, listed as Pep-SpGβ1-K10R/K13T/T18A/E19I/V21D/T25M/F30L/Y33F/N35F/D47A.2dC): ≥ 200
K13T/E19I/K28I/F30L/Y33F/E42Q/D47Y: GST-fused one-domain SpG-β1 mutant, amino acid SEQ ID NO: 59 (TTYKLILNGKTLTGETTTIAVDAATAEIVLKQFANDNGVDGQWTYDYATKTFTVTE; also: GST-fused) | – | – | – | – | 1.45e+06 M⁻¹ | 0.0063 s⁻¹ | 91000 s/M | 3.9 | –
Pep.1d K13T/E19I/V21D/T25M/F30L/Y33F/N35F/D47A (TTYKLILNGKTLTGETTTIADDAAMAEKVLKQFAFDNGVDGEWTYDAATKTFTVTE) | 4.24e+06 M⁻¹ | 0.0257 s⁻¹ | 109000 s/M | 29 | – | – | – | – | KA Vs. Wild (Table 3, Example 4, fold of wild-type KA of the same construct type, listed as Pep-SpGβ1-K13T/E19I/V21D/T25M/F30L/Y33F/N35F/D47A.1d): ~30; affinity / binding ability for the IgG-Fab compared with the wild-type (in words): significantly higher affinity for the IgG-Fab than Pep-SpGβ1-Wild.1d
Pep.1d K10R/K13T/T18A/E19I/V21D/T25M/F30L/Y33F/N35F/D47A: SpG-β1 mutant, SEQ ID NO: 87, GST-cleaved one domain type (TTYKLILNGRTLTGETTAIADDAAMAEKVLKQFAFDNGVDGEWTYDAATKTFTVTE; SpG mutant) | 1.19e+07 M⁻¹ | 0.0117 s⁻¹ | 138000 s/M | 83 | – | – | – | – | affinity constant (KA), order of magnitude (Example 4, GST-cleaved one domain type): ~10^7 M^−1; KA Vs. Wild (Table 3, Example 4, fold of wild-type KA of the same construct type, listed as Pep-SpGβ1-K10R/K13T/T18A/E19I/V21D/T25M/F30L/Y33F/N35F/D47A.1d): ≥ 80; affinity / binding ability for the IgG-Fab compared with the wild-type (in words): significantly higher affinity for the IgG-Fab than Pep-SpGβ1-Wild.1d
K13T/E19I/F30L/Y45F/D47Y: GST-fused one-domain SpG-β1 mutant, amino acid SEQ ID NO: 83 (TTYKLILNGKTLTGETTTIAVDAATAEKVLKQYANDNGVDGEWTFDYATKTFTVTE; also: GST-fused) | – | – | – | – | 1.39e+06 M⁻¹ | 0.007 s⁻¹ | 97700 s/M | 3.7 | –
K13S/E19V/F30L/Y33F: GST-fused one-domain SpG-β1 mutant, amino acid SEQ ID NO: 81 (TTYKLILNGKTLSGETTTVAVDAATAEKVLKQFANDNGVDGEWTYDDATKTFTVTE; also: GST-fused, end not given here) | – | – | – | – | 1.54e+06 M⁻¹ | 0.0064 s⁻¹ | 98400 s/M | 4.1 | –
K13T/T18A/E19V/F30L/Y33F: GST-fused one-domain SpG-β1 mutant, amino acid SEQ ID NO: 67 (TTYKLILNGKTLTGETTAVAVDAATAEKVLKQFANDNGVDGEWTYDDATKTFTVTE; also: GST-fused) | – | – | – | – | 2.85e+06 M⁻¹ | 0.0033 s⁻¹ | 93600 s/M | 7.6 | –
K13T/E19I/F30L/D47N: GST-fused one-domain SpG-β1 mutant, amino acid SEQ ID NO: 43 (TTYKLILNGKTLTGETTTIAVDAATAEKVLKQYANDNGVDGEWTYDNATKTFTVTE; also: GST-fused) | – | – | – | – | 1.27e+06 M⁻¹ | 0.0073 s⁻¹ | 92600 s/M | 3.4 | –
Pep.1d K13T/T18A/E19I/V21A/K28I/F30L/Y33F/V39I: SpG-β1 mutant, SEQ ID NO: 85, GST-cleaved one domain type (TTYKLILNGKTLTGETTAIAADAATAEIVLKQFANDNGIDGEWTYDDATKTFTVTE; SpG mutant) | 5.34e+06 M⁻¹ | 0.0207 s⁻¹ | 111000 s/M | 37 | – | – | – | – | affinity / binding ability for the IgG-Fab compared with the wild-type (in words): significantly higher affinity for the IgG-Fab than Pep-SpGβ1-Wild.1d
K13T/E19I/E27D/F30L/K31R: GST-fused one-domain SpG-β1 mutant, amino acid SEQ ID NO: 35 (TTYKLILNGKTLTGETTTIAVDAATADKVLRQYANDNGVDGEWTYDDATKTFTVTE; also: GST-fused) | – | – | – | – | 2.74e+06 M⁻¹ | – | 150000 s/M | 7.3 | –
K13T/D22N/A23T/T25S/F30L/A48T: GST-fused one-domain SpG-β1 mutant, amino acid SEQ ID NO: 73 (TTYKLILNGKTLTGETTTEAVNTASAEKVLKQYANDNGVDGEWTYDDTTKTFTVTE; also: GST-fused) | – | – | – | – | 1.06e+06 M⁻¹ | 0.0098 s⁻¹ | 104000 s/M | 2.8 | –
K13T/E19I/K28I/F30L/N35F: GST-fused one-domain SpG-β1 mutant, amino acid SEQ ID NO: 57 (TTYKLILNGKTLTGETTTIAVDAATAEIVLKQYAFDNGVDGEWTYDDATKTFTVTE; also: GST-fused) | – | – | – | – | 1.4e+06 M⁻¹ | 0.0063 s⁻¹ | 88000 s/M | 3.7 | –
K13T/E19I/V21D/T25M/F30L/Y33F/N35F/D47A: GST-fused one-domain SpG-β1 mutant, amino acid SEQ ID NO: 55 (TTYKLILNGKTLTGETTTIADDAAMAEKVLKQFAFDNGVDGEWTYDAATKTFTVTE; also: GST-fused) | – | – | – | – | 3.47e+06 M⁻¹ | 0.003 s⁻¹ | 104000 s/M | 9.3 | –
K13T/E19I/D22E/A24T/F30L/Y33F/D47G: GST-fused one-domain SpG-β1 mutant, amino acid SEQ ID NO: 79 (TTYKLILNGKTLTGETTTIAVEATTAEKVLKQFANDNGVDGEWTYDGATKTFTVTE; also: GST-fused) | – | – | – | – | 1.32e+06 M⁻¹ | 0.0053 s⁻¹ | 69500 s/M | 3.5 | –
Pep.2dC K13T/E19I/V21D/T25M/F30L/Y33F/N35F/D47A (TTYKLILNGKTLTGETTTIADDAAMAEKVLKQFAFDNGVDGEWTYDAATKTFTVTE) | 9.68e+06 M⁻¹ | 0.0058 s⁻¹ | 55700 s/M | 29 | – | – | – | – | –
Pep.1dC K10R/K13T/T18A/E19I/V21D/T25M/F30L/Y33F/N35F/D47A (TTYKLILNGRTLTGETTAIADDAAMAEKVLKQFAFDNGVDGEWTYDAATKTFTVTE) | 1.56e+07 M⁻¹ | 0.0062 s⁻¹ | 97700 s/M | 88 | – | – | – | – | –
K13T/E15Q/E19V/F30L/V39L: GST-fused one-domain SpG-β1 mutant, amino acid SEQ ID NO: 61 (TTYKLILNGKTLTGQTTTVAVDAATAEKVLKQYANDNGLDGEWTYDDATKTFTVTE; also: GST-fused) | – | – | – | – | 1.42e+06 M⁻¹ | 0.0063 s⁻¹ | 89800 s/M | 3.8 | –
